# Experimental data taken from US20220062341A1 (KIRIN, published 2022).
# B1: modified TCR consisting of β7 and α9 (TCR)
# TCR alpha: FNNSIIPEDTFFPSPESSCDVKLVEKSFETDTNLNFQNLSVIGFRILLLKVAGFNLLMTLRLWSS
# TCR beta: RLRVSATFWQNPRNHFRCQVQFYGLSENDEWTQDRAKPVTQIVSAEAWGRADCGFTSESYQQGVLSATILYEILLGKATLYAVLVSALVLMAMVKRKDSRG
# B2: modified TCR consisting of β9 and α9 (TCR)
# TCR alpha: B1 TCR alpha
# TCR beta: FRCQVQFYGLSENDEWTQDRAKPVTQIVSAEAWGRADCGFTSESYQQGVLSATILYEILLGKATLYAVLVSALVLMAMVKRKDSRG
# B3: modified TCR consisting of β7 and α10 (TCR)
# TCR alpha: IPEDTFFPSPESSCDVKLVEKSFETDTNLNFQNLSVIGFRILLLKVAGFNLLMTLRLWSS
# TCR beta: B1 TCR beta
# B4: modified TCR consisting of β2 and α2 (TCR)
# TCR alpha: SVCLFTDFDSQTNVSQSKDSDVYITDKTVLDMRSMDFKSNSAVAWSNKSDFACANAFNNSIIPEDTFFPSPESSCDVKLVEKSFETDTNLNFQNLSVIGFRILLLKVAGFNLLMTLRLWSS
# TCR beta: ATLVCLATGFYPDHVELSWWVNGKEVHSGVSTDPQPLKEQPALNDSRYCLSSRLRVSATFWQNPRNHFRCQVQFYGLSENDEWTQDRAKPVTQIVSAEAWGRADCGFTSESYQQGVLSATILYEILLGKATLYAVLVSALVLMAMVKRKDSRG
# B5: modified TCR consisting of β2 and α4 (TCR)
# TCR alpha: DVYITDKTVLDMRSMDFKSNSAVAWSNKSDFACANAFNNSIIPEDTFFPSPESSCDVKLVEKSFETDTNLNFQNLSVIGFRILLLKVAGFNLLMTLRLWSS
# TCR beta: B4 TCR beta
# B6: modified TCR consisting of β2 and α9 (TCR)
# TCR alpha: B1 TCR alpha
# TCR beta: B4 TCR beta
# B7: modified TCR consisting of β2 and α7 (TCR)
# TCR alpha: SNKSDFACANAFNNSIIPEDTFFPSPESSCDVKLVEKSFETDTNLNFQNLSVIGFRILLLKVAGFNLLMTLRLWSS
# TCR beta: B4 TCR beta
# B8: modified TCR consisting of β2 and α10 (TCR)
# TCR alpha: B3 TCR alpha
# TCR beta: B4 TCR beta
# B9: modified TCR consisting of β2 and α5 (TCR)
# TCR alpha: LDMRSMDFKSNSAVAWSNKSDFACANAFNNSIIPEDTFFPSPESSCDVKLVEKSFETDTNLNFQNLSVIGFRILLLKVAGFNLLMTLRLWSS
# TCR beta: B4 TCR beta
# B10: modified TCR consisting of β2 and α8 (TCR)
# TCR alpha: CANAFNNSIIPEDTFFPSPESSCDVKLVEKSFETDTNLNFQNLSVIGFRILLLKVAGFNLLMTLRLWSS
# TCR beta: B4 TCR beta
# B11: modified TCR consisting of β2 and α6 (TCR)
# TCR alpha: KSNSAVAWSNKSDFACANAFNNSIIPEDTFFPSPESSCDVKLVEKSFETDTNLNFQNLSVIGFRILLLKVAGFNLLMTLRLWSS
# TCR beta: B4 TCR beta
# B12: modified TCR consisting of β1 and α1 (TCR)
# TCR alpha: YQLRDSKSSDKSVCLFTDFDSQTNVSQSKDSDVYITDKTVLDMRSMDFKSNSAVAWSNKSDFACANAFNNSIIPEDTFFPSPESSCDVKLVEKSFETDTNLNFQNLSVIGFRILLLKVAGFNLLMTLRLWSS
# TCR beta: SEAEISHTQKATLVCLATGFYPDHVELSWWVNGKEVHSGVSTDPQPLKEQPALNDSRYCLSSRLRVSATFWQNPRNHFRCQVQFYGLSENDEWTQDRAKPVTQIVSAEAWGRADCGFTSESYQQGVLSATILYEILLGKATLYAVLVSALVLMAMVKRKDSRG
# B13: modified TCR consisting of β2 and α1 (TCR)
# TCR alpha: B12 TCR alpha
# TCR beta: B4 TCR beta
# B14: modified TCR consisting of β9 and α8 (TCR)
# TCR alpha: B10 TCR alpha
# TCR beta: B2 TCR beta
# B15: modified TCR consisting of β9 and α10 (TCR)
# TCR alpha: B3 TCR alpha
# TCR beta: B2 TCR beta
# B16: modified TCR of the combination of βCR and αCR (TCR)
# TCR alpha: NIQNPDPAVYQLRDSKSSDKSVCLFTDFDSQTNVSQSKDSDVYITDKTVLDMRSMDFKSNSAVAWSNKSDFACANAFNNSIIPEDTFFPSPESSCDVKLVEKSFETDTNLNFQNLSVIGFRILLLKVAGFNLLMTLRLWSS
# TCR beta: EDLKNVFPPEVAVFEPSEAEISHTQKATLVCLATGFYPDHVELSWWVNGKEVHSGVSTDPQPLKEQPALNDSRYCLSSRLRVSATFWQNPRNHFRCQVQFYGLSENDEWTQDRAKPVTQIVSAEAWGRADCGFTSESYQQGVLSATILYEILLGKATLYAVLVSALVLMAMVKRKDSRG
# B17: modified TCR of the combination of βCR and α6 (TCR)
# TCR alpha: B11 TCR alpha
# TCR beta: B16 TCR beta
# B18: modified TCR consisting of β1 and αCR (TCR)
# TCR alpha: B16 TCR alpha
# TCR beta: B12 TCR beta
# B19: modified TCR consisting of β2 and αCR (TCR)
# TCR alpha: B16 TCR alpha
# TCR beta: B4 TCR beta
# B20: modified TCR of the combination of βCR and α8 (TCR)
# TCR alpha: B10 TCR alpha
# TCR beta: B16 TCR beta
# B21: modified TCR of the combination of βCR and α1 (TCR)
# TCR alpha: B12 TCR alpha
# TCR beta: B16 TCR beta
# B22: modified TCR of the combination of βCR and α7 (TCR)
# TCR alpha: B7 TCR alpha
# TCR beta: B16 TCR beta
# B23: modified TCR of the combination of βCR and α10 (TCR)
# TCR alpha: B3 TCR alpha
# TCR beta: B16 TCR beta
# B24: modified TCR of the combination of βCR and α5 (TCR)
# TCR alpha: B9 TCR alpha
# TCR beta: B16 TCR beta
# B25: modified TCR of the combination of βCR and α3 (TCR)
# TCR alpha: NVSQSKDSDVYITDKTVLDMRSMDFKSNSAVAWSNKSDFACANAFNNSIIPEDTFFPSPESSCDVKLVEKSFETDTNLNFQNLSVIGFRILLLKVAGFNLLMTLRLWSS
# TCR beta: B16 TCR beta
# B26: modified TCR of the combination of βCR and α4 (TCR)
# TCR alpha: B5 TCR alpha
# TCR beta: B16 TCR beta
# B27: modified TCR of the combination of βCR and α2 (TCR)
# TCR alpha: B4 TCR alpha
# TCR beta: B16 TCR beta
# B28: modified TCR of the combination of βCR and α9 (TCR)
# TCR alpha: B1 TCR alpha
# TCR beta: B16 TCR beta
# Target: CD3 subunits (CD3E, CD3G, CD3D, CD3Z) (human, UniProt P07766 23-207; P09693 23-182; P04234 22-171; P20963 22-164)
# Assay: cell-based or functional assay
# Sequence of CD3 subunits (CD3E, CD3G, CD3D, CD3Z) (P07766 23-207, chain 1 of 4): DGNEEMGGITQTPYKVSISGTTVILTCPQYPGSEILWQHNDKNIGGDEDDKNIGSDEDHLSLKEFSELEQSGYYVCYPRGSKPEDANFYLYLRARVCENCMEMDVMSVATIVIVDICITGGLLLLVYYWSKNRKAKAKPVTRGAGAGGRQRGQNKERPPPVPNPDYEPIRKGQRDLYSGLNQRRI
# Sequence of CD3 subunits (CD3E, CD3G, CD3D, CD3Z) (P09693 23-182, chain 2 of 4): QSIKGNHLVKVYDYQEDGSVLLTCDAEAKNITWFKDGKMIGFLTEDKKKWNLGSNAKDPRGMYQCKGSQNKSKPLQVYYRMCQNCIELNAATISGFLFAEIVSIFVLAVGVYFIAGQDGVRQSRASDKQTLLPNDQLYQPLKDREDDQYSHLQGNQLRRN
# Sequence of CD3 subunits (CD3E, CD3G, CD3D, CD3Z) (P04234 22-171, chain 3 of 4): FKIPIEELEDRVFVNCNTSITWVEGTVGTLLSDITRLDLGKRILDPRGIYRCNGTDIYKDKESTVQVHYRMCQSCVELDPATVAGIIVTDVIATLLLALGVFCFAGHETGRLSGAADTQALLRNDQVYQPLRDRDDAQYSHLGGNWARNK
# Sequence of CD3 subunits (CD3E, CD3G, CD3D, CD3Z) (P20963 22-164, chain 4 of 4): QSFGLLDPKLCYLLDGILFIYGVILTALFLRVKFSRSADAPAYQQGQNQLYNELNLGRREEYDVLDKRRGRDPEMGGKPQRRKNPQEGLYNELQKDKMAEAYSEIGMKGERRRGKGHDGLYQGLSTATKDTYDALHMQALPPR
row,"CD3-recruiting activity (CD3-positive proportion, N=3), CD3-stably expressing 293T cells",Binder
1,≥ 20%,B1
2,≥ 20%,B2
3,≥ 20%,B3
4,≥ 20%,B4
5,≥ 20%,B5
6,≥ 20%,B6
7,≥ 20%,B7
8,≥ 20%,B8
9,≥ 20%,B9
10,≥ 20%,B10
11,≥ 20%,B11
12,≥ 20%,B12
13,≥ 20%,B13
14,≥ 20%,B14
15,≥ 20%,B15
16,≥ 80%,B16
17,≥ 80%,B17
18,≥ 20%,B18
19,≥ 20%,B19
20,≥ 80%,B20
21,≥ 80%,B21
22,≥ 80%,B22
23,≥ 80%,B23
24,≥ 80%,B24
25,≥ 80%,B25
26,≥ 80%,B26
27,≥ 80%,B27
28,≥ 80%,B28
